# Test system: MS2 coat protein
# Experiment: apparent KD of MS2 coat protein; designed switch direction (-1 OFF switch, 1 ON switch): -1; higher = weaker reporter binding
# Procedure, shortened: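 Apparent KD, taken as the median over clusters for each design, was obtained by curve-fitting normalised cluster fluorescence. Designed RNA switches had been transcribed on Illumina chips by stalled E. coli RNA polymerase and titrated with SNAP-549-labelled MS2 coat protein, doubling from 0.7 or 1.5 nM to 3 µM.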
# [1] = input ligand: microRNA oligo, concentration not stated
# [2] = Eterna round: R95, input ligand: FMN 200 uM
# [3] = Eterna round: R95, input ligand: microRNA oligo, concentration not stated
# [4] = Eterna round: R95, input ligand: none
Sequence,apparent KD of MS2 coat protein (input ligand: FMN 200 uM) [nM],apparent KD of MS2 coat protein [1] [nM],apparent KD of MS2 coat protein (input ligand: none) [nM],apparent KD of MS2 coat protein [2] [nM],apparent KD of MS2 coat protein [3] [nM],apparent KD of MS2 coat protein [4] [nM]
"AAAAGAACAUGAGGAUCACCCAUGUGAACCUUCGUUCGACCUCAGGAUAUCCGCCACCGUCCGCAGGAGAAGGGAGGUAAAAUA [Quraa] (Eterna round: R96, puzzle: Exclusion NG 3)",169,45.6,58.8,,,
"UAGAAGUCAGGAUAUCCAUGGCGGCACUUGCGUGGUGGCGUGGAGAAGGGACAUGAGGAUCACCCAUGUAAAGG [salish99-ex4-045] (Eterna round: R96, puzzle: Exclusion 4)",192,63.1,100,,,
"GUAAACGAAGAGGAUAUUUGAUAUCAUAGCUUCAAAGAAGGCUUCACAUGAGGAUCACCCAUGUGAUCUUCAAA [Mat - Exclusion 6 - JL Mod - D22] (Eterna round: R97, puzzle: Exclusion 6)",142,,20.7,,,
"GAUUAUGCGAGCUUUAGGGACAUGAGGAUCACCCAUGUUCGUCUUAUUAGUCUAAAUACACUGACAUACCUAAAUCU [JMF 54] (puzzle: Sensor v3, turn-off variant 1)",,,,17.3,15.9,13.6
"CCCAGUUAGGAAGGAUAUUGUACAUGAGGAUCACCCAUGUAAUAAAUGAGGAUCUCGGAUGUAUACAAGAAGGUCCGGAUAGGC [Ostracism 10 - Jieux - Exclusion NG 2] (Eterna round: R96, puzzle: Exclusion NG 2)",,58.5,,,,
UUAUUGUGAGGAUAUCAGGUGUGCUAGCGUACUGGUACAUCUGAGAAGGCACAUGAGGAUCACCCAUGUUCCUU [JL-ex4-3.26 Brourd mod] (puzzle: Exclusion 4),,,,,14.4,
AACGGUGGGUAGGAUAUCCGGUUCUAGUUGCCAGGAGAAGGGCCCACAUGAGGAUCACCCAUGUGGGUGGGCUC [Maesri] (puzzle: Exclusion 6),,,,,43.6,
"ACAUGUCAUCGAGGAUAUUGUACACAUGAGGAUCACCCAUGUAUUCGGUUGCUCUAGCAUGAGUUCGAGAAGGCGAUGUACAUU [Ex NG2 #83] (Eterna round: R96, puzzle: Exclusion NG 2)",153,134,194,,,
AAAAAGGUAGGAUAUACGAAAAAAAAGGGUAGAAAAAAAACACAUGAGGAUCACCCAUGUAGAAGGACCAAAAA [salish99_ex2_r3_043] (puzzle: Exclusion 2),,,,97.3,26.8,26.1
AAAAAGUGAGGAUAUGCAUAAGGACCCGGGAGGGAAAUAAAACAUGAGGAUCACCCAUGUAGAAGGCGCAAAAA [Exclss2-II] (puzzle: Exclusion 2),,,,17.2,16,15.7
"GUUUACAAGCUAAGAUCCUACAUGAGGAUCACCCAUGUGGUCCGGUGACGUGAGUCACCGGACUUAGCUCGUCUUGC [salish99_S_TOV1_R5_089] (Eterna round: R97, puzzle: Sensor, turn-off variant 1)",36,,37.2,,,
"GUUGUAUGAGGAUAUACAUGAGGAUCACCCAUGUGUGUUGUGAACGACGUACGUUUAUGUAGAAGGCGUGCGGC [-24.9, -21.8 kcal, 24% A] (Eterna round: R97, puzzle: Exclusion 3)",18.2,,17.9,,,
"GUUUUCAGACGGAGAUCCUACAUGAGGAUCACCCAUGUCUCUCUUGCUAAUUGCUCGUCUUAUUCUCCUCUGUUCUC [Elimod 37 - Jieux - Sensor, turn-off variant 1] (Eterna round: R97, puzzle: Sensor, turn-off variant 1)",80.8,,100,,,
"CAGUACUGAGGAUAUACAUGAGGAUCACCCAUGUUGAGAUGAAAAGAAAUAGUUUCAUGUAGAAGGCGGUGCUG [JR_Ex3_Sub048] (Eterna round: R97, puzzle: Exclusion 3)",365,,118,,,
"AGUACUAACACGAAAGUGUUAGUGCAAUAAGCUUGUGAAACAUGAGGAUCACCCAUGUCCUCAUAAGCUCGUCUUAU [salish99_TOv2_r3_039] (puzzle: Sensor v3, turn-off variant 2)",,,,15.6,582,16.2
"AGCCCUGCAGGAUAUGCCCGGGAUAACAUGAGGAUCACCCAUGUGACCGAUUGUUAUCCUGCAGAAGGGCAUGGGA [JL-EX5-4.12 ViennaUCT mod] (Eterna round: R97, puzzle: Exclusion 5)",172,,161,,,
"ACCUAUGAGGAGGAUAUACAGUGCGAAAGGACAGUAGAAGGCUUCACAUGAGGAUCACCCAUGUCGAUAAGCGA [EX6 #83] (Eterna round: R97, puzzle: Exclusion 6)",30.2,,21.5,,,

Sequence,apparent KD of MS2 coat protein (input ligand: FMN 200 uM) [nM],apparent KD of MS2 coat protein [1] [nM],apparent KD of MS2 coat protein (input ligand: none) [nM],apparent KD of MS2 coat protein [2] [nM],apparent KD of MS2 coat protein [3] [nM],apparent KD of MS2 coat protein [4] [nM]
"UUUGCAAGCUUUUGAUCCCACAUGAGGAUCACCCAUGUUGCUGCCGUGAGGUAGCAUUUAACAAAUGCUCGUCUUAU [JL TOV1 3.53] (Eterna round: R97, puzzle: Sensor, turn-off variant 1)",555,,762,,,
UAGGAGUCAGGAUAUGCGAGAGAUGGAAGAAAGGGAAGAGAGCAGAAGGGACAUGAGGAUCACCCAUGUAAGGA [JR_Exclu4_Sub090] (puzzle: Exclusion 4),,,,34.2,35.7,36.1
GGAUCUUGGGUCAGGAUAUGCUGGUAUUUUUGCCAGCAGAAGGGACAUGAGGAUCACCCAUGUUCUUGGUUUUG [Magic-15] (puzzle: Brourd's mod of Exclusion 4),,,,,11,
"AAACACGGAGGAUAUGGUCACUAGGACAUGAGGAUCACCCAUGUGGGAGUGCUAGUGCUACCAGAAGGUUGAAGUC [Eternabot (L1) Solution 54] (Eterna round: R97, puzzle: Exclusion 5)",66.6,,76.1,,,
GCCGAGUGAGGAUAUACAUGAGGAUCACCCAUGUAAACACGAAAGCAAGUGUCCCUCAGUAGAAGGCGCCUGGA [Aerusesxe] (puzzle: Exclusion 3),,,,,14.8,
AGGGAUAAAGGAUAUACAUGAGGAUCACCCAUGUUGAGGAAAGUGAGAUGAGGAGGAAGUAGAAGGUUAGGCGA [JR_Exclu3_Sub085] (puzzle: Exclusion 3),,,,37.2,37.7,47.4
"CUUGUGUAAGGAUAUAUGAGUCACGGAAAUAAACCGUGAAGAUAGAAGGUACAUGAGGAUCACCCAUGUAAAAC [Mod of Anonveat 5 - Jieux - Exclusion 4] (Eterna round: R97, puzzle: Exclusion 4)",224,,35.2,,,
"CUGCUCCGUGUAGGAUAUGCAUACUCCCAUUAUGCAGAAGGACAUGAGGAUCACCCAUGUAUGUUAUUAUCAUGUGUUGCAUGC [Design 11] (Eterna round: R96, puzzle: Exclusion NG 1)",164,33.9,37.3,,,
"UCUUACUGAGGAUAUACAUAGAUUUACAUGAGGAUCACCCAUGUUCCUCUAUGUAUAAAUGUAGAAGGCAGAAGAU [Mat - Exclusion 5 - JL Mod - D54] (Eterna round: R97, puzzle: Exclusion 5)",72.9,,18,,,
"AAUUAACAAGCGAGAUCCUACAUGAGGAUCACCCAUGUGCUCGUCUUAUAAAGUACUAUCACGAAAGUGAUAGUACA [Mat - Sensor v3 - turn-off var 1 - Eli Mod - D64] (puzzle: Sensor v3, turn-off variant 1)",,,,21.8,215,19.5
AUAUUAAUAUAGGAUAUCGAAUUUAUUAAUUAUCGAGAAGGAUAAACAUGAGGAUCACCCAUGUGGUAUCAUGG [Mat - Exclusion 6 - JL Mod - D39] (puzzle: Exclusion 6),,,,,256,
"UUAUUACAAGCAAGAUCCCACAUGAGGAUCACCCAUGUGCUCGUCUUAUAAGGUACUGUGACGAAAGUCACGGUACC [Sensor 3, v1 - 100] (Eterna round: R96, puzzle: Sensor v3, turn-off variant 1)",26.3,547,24.6,,,
UUGGAGAUAGGAUAUACGAGGAGAGUAGAGGGAAGGUGAGGACAUGAGGAUCACCCAUGUAGAAGGAUCAGGAG [JR_Exclu2_Sub067] (puzzle: Exclusion 2),,,,34.8,34.8,47.6
GGUGGACAUGAGGAUCACCCAUGUGAGGAUAUCGGCUAUCUACUCGCUGACGGCUGCUCGAGAAGGCGCAUUGU [Exclusion 1 V90] (puzzle: Exclusion 1),,,,,44.8,
"AAACAAAAGGCAGGAUAUCCUCGUCAACACCACAAGUCCACUCGGACAUGAGGAUCACCCAUGUAGGAGAAGGGCCAGAAAUAC [Bevearla] (Eterna round: R96, puzzle: Exclusion NG 2)",88.8,17.5,19.6,,,
"AAUUUACAUGAGGAUCACCCAUGUGAGGAUAUAUGCAAACAAUUUUUAUUAAUAAAGCAUAGAAGGCGCGUGAU [JR_Exc1_Sub043] (Eterna round: R97, puzzle: Exclusion 1)",90.5,,65.7,,,
"AGAUAACAUGAGGAUCACCCAUGUGAGGAUAUUUACCCAAGAGCUUCGGCUCUCAGGUGAAGAAGGCACGUUGA [EX1 #59] (Eterna round: R97, puzzle: Exclusion 1)",109,,55.4,,,

# From the supplement of paper PMC9170038
